Laboratory results published in paper PMC7862700, “An all-to-all approach to the identification of sequence-specific readers for epigenetic DNA modifications on cytosine”.

Tests used:
[1] = target: T1, SPDEF (Homo sapiens, UniProt O95238 1-335); assay: BLI (OCTET); EMSA: 25 mM HEPES pH 8.0, 100 mM NaCl, 50 mM KAc, 5 mM MgCl2, 5% glycerol, 1 mM DTT, 0.1 mg/mL BSA, ~22 C, 5 nM probe; OCTET: 50 mM HEPES pH 8.0, 100 mM NaCl, 50 mM KAc, 5 mM MgCl2, 40 mM glutathione, 5 mg/mL BSA, 0.05% Tween-20; conditions: protein: recombinant; tags: N-terminal GST; label: 5' biotin on strand 2 (Bio-T7 primer); blunt
T1 sequence: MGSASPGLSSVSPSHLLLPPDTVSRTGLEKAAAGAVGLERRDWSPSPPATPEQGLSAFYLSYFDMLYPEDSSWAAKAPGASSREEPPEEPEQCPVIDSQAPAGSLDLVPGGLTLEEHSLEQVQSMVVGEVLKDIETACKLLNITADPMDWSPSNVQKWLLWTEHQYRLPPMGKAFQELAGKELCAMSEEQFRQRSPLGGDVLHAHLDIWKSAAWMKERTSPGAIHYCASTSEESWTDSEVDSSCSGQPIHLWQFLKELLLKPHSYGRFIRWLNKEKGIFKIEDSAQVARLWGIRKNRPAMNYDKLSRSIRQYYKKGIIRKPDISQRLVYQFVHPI

[2] = target: T2, ETS2 (Homo sapiens, UniProt P15036 1-469); assay: as above; conditions: protein: recombinant; tags: N-terminal GST; label: 5' biotin on strand 2 (Bio-T7 primer); blunt
T2 sequence: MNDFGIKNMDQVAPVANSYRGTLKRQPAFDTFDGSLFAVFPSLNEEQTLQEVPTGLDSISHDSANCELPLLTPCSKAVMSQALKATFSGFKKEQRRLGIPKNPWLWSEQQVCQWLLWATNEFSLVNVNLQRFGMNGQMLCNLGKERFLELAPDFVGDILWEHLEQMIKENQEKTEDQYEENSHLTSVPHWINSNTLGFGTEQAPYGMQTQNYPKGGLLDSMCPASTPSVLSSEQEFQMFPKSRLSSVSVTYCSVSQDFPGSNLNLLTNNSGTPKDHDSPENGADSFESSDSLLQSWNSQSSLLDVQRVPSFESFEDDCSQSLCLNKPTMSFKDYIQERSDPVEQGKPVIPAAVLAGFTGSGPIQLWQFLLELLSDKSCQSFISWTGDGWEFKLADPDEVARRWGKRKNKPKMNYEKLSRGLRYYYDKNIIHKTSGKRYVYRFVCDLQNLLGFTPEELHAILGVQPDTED

B1: ETS family probe (dsDNA)
DNA 1: ACTTCCGGTTATAGTGAGTGCTATTA
DNA 2: TAATAGCACTCACTATAACCGGAAGT
Kd [1]: 132 nM
Kd [2]: 1.8 nM
